Laboratory results taken from publication PMC7782713, “Structural basis of Naa20 activity towards a canonical NatB substrate” (Communications Biology, 2021).
No end group written: not given here. CoA = coenzyme A

Legend:
[1] = molecular target: Chaetomium thermophilum Naa20 residues 1-166 (predicted GNAT fold) (Chaetomium thermophilum); assay: ITC; CtNaa20_(1-166) 25-35 uM in the cell, CtNaa25 250-400 uM in the syringe, 20 °C, buffer G (20 mM HEPES pH 7.5, 200 mM NaCl), single-site binding model, triplicates
CtNaa20 [2] = molecular target: T1, CtNaa20 (Thermochaetoides thermophila, UniProt G0SGG4); assay: nanoDSF thermal shift; assay type: binding; details: varying ligand excess; buffer G pH 7.5
T1 construct: gene CTHT_0066240; full length, C-terminal His6 (pET21d), E. coli Rosetta II (DE3); residues 2-190 built in the crystal structure

CtNatB = molecular target: T2, CtNatB (Thermochaetoides thermophila, UniProt G0SGG4); assay: nanoDSF thermal shift; assay type: binding; details: 1/64 protein/ligand; buffer G pH 7.5
T2 construct: gene CTHT_0066240; co-expressed in E. coli Rosetta II (DE3); CtNaa20 with C-terminal His6, CtNaa25 with TEV-cleavable N-terminal His6; with N-alpha-acetyltransferase 25 (N-terminal acetyltransferase B complex auxiliary subunit NAA25)

[3] = molecular target: Chaetomium thermophilum Naa25, auxiliary subunit of NatB, full length (Chaetomium thermophilum); assay: SEC-MALS; Superdex 200 10/300 in buffer G (20 mM HEPES pH 7.5, 200 mM NaCl); CtNatB (0.12 mg, co-expressed and purified as a complex), CtNaa25 (0.13 mg) and CtNaa20 (0.1 mg) injected one after the other
[4] = molecular target: Chaetomium thermophilum Naa20, catalytic subunit of NatB, full length (Chaetomium thermophilum)
[5] = molecular target: Chaetomium thermophilum NatB complex (CtNaa25 with CtNaa20) (Chaetomium thermophilum)
CtNaa20 [6] = molecular target: T3, CtNaa20 (Chaetomium thermophilum, UniProt G0SGG4 1-235); assay: EMSA; 5-20 uM protein, 5 uM RNA; 20 mM Tris pH 8, 200 mM NaCl, 10 mM MgCl2, 10 mM KCl, 20% glycerol, 20 C, 30 min; 0.8% agarose gel in 0.5x TB; details: protein: recombinant; tags: C-terminal His6
T3 sequence: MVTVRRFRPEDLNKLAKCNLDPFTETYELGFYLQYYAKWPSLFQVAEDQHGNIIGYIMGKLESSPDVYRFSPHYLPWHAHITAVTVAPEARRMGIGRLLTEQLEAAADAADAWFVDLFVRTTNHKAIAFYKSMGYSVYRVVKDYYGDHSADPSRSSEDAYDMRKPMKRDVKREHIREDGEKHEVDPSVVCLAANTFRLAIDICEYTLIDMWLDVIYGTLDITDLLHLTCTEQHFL

[7] = molecular target: T4, Chaetomium thermophilum NatB complex (CtNaa25 with CtNaa20) (Chaetomium thermophilum); assay: cell-based or functional assay
T4 chain: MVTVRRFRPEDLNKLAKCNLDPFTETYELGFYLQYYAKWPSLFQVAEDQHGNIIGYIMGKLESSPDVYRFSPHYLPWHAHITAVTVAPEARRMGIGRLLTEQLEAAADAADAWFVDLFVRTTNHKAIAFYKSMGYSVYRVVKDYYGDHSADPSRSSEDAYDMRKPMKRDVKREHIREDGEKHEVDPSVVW

[8] = molecular target: T4, Chaetomium thermophilum NatB complex …; assay: enzyme inhibition kinetics (acetylation microplate assay); 500 nM enzyme; mode of inhibition and inhibitor constant of CoA-Ac-MDEL in the acetylation of MDEL; competitive inhibitor; triplicates; details: both partners purified

Molecule: Chaetomium thermophilum Naa25, auxiliary subunit of NatB, full length (natural protein)
- Kd [1]: 17.8 nM
- dH [1]: 5.4 kcal/mol
- stoichiometry N [1]: 1

Molecule: CC(=O)SCCNC(=O)CCNC(=O)[C@H](O)C(C)(C)COP(=O)(O)OP(=O)(O)OC[C@H]1O[C@@H](n2cnc3c(N)ncnc32)[C@H](O)[C@@H]1OP(=O)(O)O [AcCoA]
- Tm (CtNaa20 [2]): Binding of both ligands to CtNatB and CtNaa20 is indicated by protein stabilization
- Tm without to with ligand (CtNatB): 58 to 62 °C

Molecule: Chaetomium thermophilum Naa20, catalytic subunit of NatB, full length (enzyme)
- stoichiometry N [3]: 1

Molecule: MDEL peptide (canonical NatB substrate)
- Km for MDEL in the acetylation assay (constant AcCoA, varying MDEL) [4]: 4400 µM
- Km for MDEL in the acetylation assay (constant AcCoA, varying MDEL) [5]: 232 µM

Molecule: GGGCCUCUAGCCGGGCAACCGGCCGGCGGCUC (structured_RNA) [CtES27 fragment (tip of expansion segment 27)]
- binding result (CtNaa20 [6]): no binding

B1: CoA-Ac-MDEL bisubstrate analog (peptide MDEL joined to coenzyme A through an acetyl bridge) (peptide)
peptide: {CoA-Ac}-MDEL
notes: peptide part of the bisubstrate analog, the canonical NatB substrate MDEL; A tetrapeptide conjugate of 1314 Da; also called MDEL (peptide part M1pD2pE3pL4p); source: synthetic peptide (solid phase), bromo-acetylated and coupled to coenzyme A, purified by reverse phase HPLC
- IC50 of the inhibition of acetylation by CtNaa20 alone [4]: 6500 nM
- half-maximum inhibitor concentration (IC50) of the NatB mediated acetylation of MDEL [7]: 1560 nM
- Ki [8]: 410 ± 140 nM
